The record followed here is patent publication US20190248902A1 (published 2019).

Test [1] concerns the target T1, human ASGR-1 mutant construct H203 (human, UniProt P07306 1-291).
T1 construct: Arg/Glu scanning: non-arginine residues were changed to arginine; Transiently expressed on CHO-S cells
T1 sequence: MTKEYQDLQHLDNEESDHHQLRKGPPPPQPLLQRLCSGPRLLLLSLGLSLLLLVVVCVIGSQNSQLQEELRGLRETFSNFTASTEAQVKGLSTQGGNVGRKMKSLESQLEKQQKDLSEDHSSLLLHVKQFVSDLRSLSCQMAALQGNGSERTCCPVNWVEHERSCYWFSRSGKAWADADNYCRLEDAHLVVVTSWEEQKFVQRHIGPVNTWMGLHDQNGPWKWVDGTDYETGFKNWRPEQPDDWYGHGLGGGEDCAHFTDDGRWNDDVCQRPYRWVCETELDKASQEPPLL
Description: FACS ratio: H203 normalized value / wt normalized value. On the procedure:
(§1) The ability of human ASGR-1-specific, ligand competing antibodies to bind to the mutant hASGR-1 proteins was assessed by FACS as described above.
(§2) Antibodies were tested for binding to the individual mutant and wild type ASGR-1 constructs using normalized antibody concentrations (5 ug/ml). CHO—S cells transiently expressing the appropriate mutated or non-mutated antigen of interest were mixed with antibody sample or controls, incubated for 1 hour at 4° C., and then washed twice. Cells with bound antibody were then incubated with Alexa Fluor® 647 IgG Fc fragment-specific detection antibody and 7-AAD viability stain for 15 minutes at 4° C., washed once and resuspended in FACS buffer. Samples were analyzed using a BD Accuri™ Flow Cytometer and an Intellicyt HyperCyt Autosampler. As a negative control, supernatants and controls were also screened against CHO—S cells transfected with empty parental vector (referred to as mock). […] Because mutant hASGR-1 expression levels varied relative to each other, sample binding data for each construct was normalized for expression by dividing the binding data from an antibody not affected by the mutations (e.g., 65C12) by the binding values of each test antibody on a given mutant construct. Also, because the antibody binding affinities varied amongst the samples, the expression corrected data (above) was further normalized by comparing test antibody binding on each mutant construct to wild type hASGR-1. Identification of specific mutations that affected test antibody binding was performed by an interquartile range (IQR) analysis to determine statistical outliers. A mutation was identified as a “hit” if the calculated values were >3× the IQR (above the 3rd quartile/upper fence) for a given mutant construct. Although IQR analysis was used here to determine signifance and identify hits, one skilled in the art will recognize that a number of methods could be employed in order to normalize the data (eg. using epitope-tagged constructs or other ASGR-1-binding antibodies directed against non-CBD epitopes).

Test [2] has as its target T1, human ASGR-1 mutant construct H203. Description: FACS, transfected CHO-S cells, mAb 5 ug/ml. On the procedure: as §1, §2
The target in test [3] is T2, human ASGR-1 (wild type) (human, UniProt P07306 1-291).
T2 construct: also called wt ASGR1; huASGR-1
T2 sequence: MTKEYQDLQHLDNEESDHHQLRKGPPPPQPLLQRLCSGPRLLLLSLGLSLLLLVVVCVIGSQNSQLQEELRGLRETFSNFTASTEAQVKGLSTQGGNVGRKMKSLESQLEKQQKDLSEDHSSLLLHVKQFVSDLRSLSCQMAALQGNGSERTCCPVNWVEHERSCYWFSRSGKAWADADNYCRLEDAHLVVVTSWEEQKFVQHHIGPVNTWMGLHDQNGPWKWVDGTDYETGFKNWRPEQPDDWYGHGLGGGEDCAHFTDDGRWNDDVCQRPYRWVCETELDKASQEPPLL
The test can be described thus: FACS, transfected CHO-S cells, mAb 5 ug/ml. On the procedure: as §1, §2
Background: In flow cytometry, cells or beads pass a laser one at a time.

Test [4] addresses T1, human ASGR-1 mutant construct H203. Description: FACS ratio: 65C12 geomean / this mAb geomean. On the procedure:
(§3) Mutant hASGR-1 variants were constructed such that non-arginine residues were changed to arginine and where wild type arginine residues were mutated to glutamic acid. Each mutant hASGR-1 sequence was then cloned into a mammalian expression vector and used to transiently transfect CHOs cells. The ability of human ASGR-1-specific, ligand competing antibodies to bind to the mutant hASGR-1 proteins was assessed by FACS as described above.
(§4) Antibodies were tested for binding to the individual mutant and wild type ASGR-1 constructs using normalized antibody concentrations (5 ug/ml). CHO—S cells transiently expressing the appropriate mutated or non-mutated antigen of interest were mixed with antibody sample or controls, incubated for 1 hour at 4° C., and then washed twice. Cells with bound antibody were then incubated with Alexa Fluor® 647 IgG Fc fragment-specific detection antibody and 7-AAD viability stain for 15 minutes at 4° C., washed once and resuspended in FACS buffer. Samples were analyzed using a BD Accuri™ Flow Cytometer and an Intellicyt HyperCyt Autosampler. As a negative control, supernatants and controls were also screened against CHO—S cells transfected with empty parental vector (referred to as mock). […] Because mutant hASGR-1 expression levels varied relative to each other, sample binding data for each construct was normalized for expression by dividing the binding data from an antibody not affected by the mutations (e.g., 65C12) by the binding values of each test antibody on a given mutant construct. Also, because the antibody binding affinities varied amongst the samples, the expression corrected data (above) was further normalized by comparing test antibody binding on each mutant construct to wild type hASGR-1. Identification of specific mutations that affected test antibody binding was performed by an interquartile range (IQR) analysis to determine statistical outliers. A mutation was identified as a “hit” if the calculated values were >3× the IQR (above the 3rd quartile/upper fence) for a given mutant construct.

In test [5] the target is T2, human ASGR-1 (wild type). The test can be described thus: FACS ratio: 65C12 geomean / this mAb geomean. On the procedure: as §3, §4

B1: 85F7 (antibody, V domains shown)
VH: QVQLQQWGAGLLKPSEPLSLTCAVYGGSFSGPYWSWIRQPPGKGLEWIGEINHSGSTNYNPSLKSRVTISVDTSKNQFSLKLTSVTAADTAVYYCARDYGGLDVWGQGTTVTVSS
VL: EPVLTQSPGTLSLSPGERATLSCRASQNIYSNYLAWYQQKPGQAPRLLIYGASSRATGIPDRFSGSGSGTDFTLTISRLEPEDFAVYCCQQYESSPWTFGQGTKVEIK
notes: mAb
As for B1, the “Normalization to wt ASGR1 Binding” value in test [1] came to 0.917. Besides, the results for the “FACS Binding Geomean” value in test [2] and in test [3] were 16500 and 33000, respectively. Also, the “Expression Normalization to mAb 65C12” value was 1.56 in test [4] and 1.7 in test [5].

B2: 199A7 (antibody, V domains shown)
VH: QVQLVESGGGVVQPGRSLRLSCAASGFTFSNYGMHWVRQAPGKGLEWVAIIWFDGSNKYYADSVKGRFTISRDNSKNTLFLQMSSLRAEDTAVYYCAREWLQFRYYYGMDVWGQGTTVTVSS
VL: DIQMTQSPSSLSASVGDRVTITCRASQGIRKDLGWYQQKPGKAPKRLIYAASSLQSGVPSRFSGSGSGTEFTLTISSLQPEDFATYVCLQHYRYPFTFGPGTKVDFK
notes: mAb
For the molecule B2, the “Normalization to wt ASGR1 Binding” value in test [1] worked out at 0.826. Moreover, the “FACS Binding Geomean” value in test [2] was 9460; in test [3], 17000. The “Expression Normalization to mAb 65C12” value in test [4] came to 2.72; in test [5], 3.3.

B3: 213B3 (antibody, V domains shown)
VH: QVQLVESGGGVVQPGRSLRLSCAASGFTFSSYGMHWVRQAPGKGLEWVAVIWYDGSNKNYADSVKGRFTISRDNSKNTLYLQMNSLRAEDTAVYYCARDRTVGYDGFDIWGQGTMVTVSS
VL: DIQMTQSPSSLSASVGDRVTITCRASQGIGKYLAWFQQKPGKAPKSLISAASSVLSGVPSKFSGSGSGTDFTLTISSLQPEDFATYYCQKYDTYPFTFGPGTKVDIK
notes: mAb
With B3, the “Normalization to wt ASGR1 Binding” value in test [1] stood at 0.539. Further, the “FACS Binding Geomean” value in test [2] was found to be 12800; in test [3], 15100. Further, the “Expression Normalization to mAb 65C12” value amounted to 2.01 in test [4] and 3.72 in test [5].

B4: 65C12 (antibody, V domains shown)
VH: EVQLVESGGGLVKPGGSLRLSCAASGFTFRSFSLNWVRQAPGKGLEWVSSISSSSSYIYYADSVKGRFTISRDNAKNSLYLQMNSLRAEDTAVYYCARDAYSHYWGQGTLVTVSS
VL: EIVMTQSPATLSVFPGEGATLSCRASQSVSINLAWYQQKPGQAPRLLIYGASTRATGIPARFNASGSGTEFTLSISSLQSENFAVYYCQQYNTWPLTFGGGTKVEIK
notes: mAb
Consider B4, for which the “Normalization to wt ASGR1 Binding” value in test [1] was 1. Moreover, the “FACS Binding Geomean” value in test [2] worked out at 25800; in test [3], 56100. Also, the “Expression Normalization to mAb 65C12” value in test [4] and in test [5] was 1 throughout.

B5: 65D5 (antibody, V domains shown)
VH: QVQLVQSGAEVKKPGASVKVSCKASGYTFPSYGISWVRQAPGQGLEWMGWISAYSGNTNYAQKLQGRVTMTTDTSTSTAYMELRSLRSDDTAVYFCARGEAVAVFDPWGQGTLVTVSS
VL: DIQMTQSPSSLSASVGDRVTITCRASQDINNYLAWFQQKPGKAPRSLIYAASSLHSGVPSQFSASGSGSDFTLTISSLQPEDFATYYCPLYKSYPLTFGPGTKVDIK
notes: mAb
In the case of B5, the “Normalization to wt ASGR1 Binding” value in test [1] turned out to be 0.928. The entries for the “FACS Binding Geomean” value in test [2] and in test [3] were 20300 and 41000, respectively. In addition, the “Expression Normalization to mAb 65C12” value in test [4] was determined as 1.27; in test [5], 1.37.

B6: 146B6 (antibody, V domains shown)
VH: EVQLVESGGGLVQPGGSLRLSCAASGFTFSSYNMNWVRQAPGKGLEWVSYISRSSNTKHYADSVKGRFTISRDNAKNSLYLQMDSLRDEDTAVYYCARDRSGSYGYFYYYGLDVWGQGTTVTVSS
VL: not shown
notes: mAb
As for B6, the “Normalization to wt ASGR1 Binding” value in test [1] worked out at 0.769. The figures for the “FACS Binding Geomean” value in test [2] and in test [3] were 14400 and 24100, respectively. Moreover, the “Expression Normalization to mAb 65C12” value was 1.79 in test [4] and 2.32 in test [5].

B7: 60C12 (antibody, V domains shown)
VH: QVQLVESGGGVVQPGRSLRLSCAASGFTFSSYGMHWVRQAPGKGLEWVAVIWYDGSNKYYVDSVKGRFTISRDNSKNTLYLQMNSLRAEDTAVYYCARRYSRSWTGGMDVWGQGTTVTVSS
VL: DIVMTQTPLSLSVTPGQPASISCKSSQSLLHSEGKTYLYWYLQKPGQPPQFLIYEVSNRFSGVPDRFSGSGSGTDFTLKISRVEAEDVGIYYCMQSIKYPLTFGGGTKVEIK
notes: mAb
For the molecule B7, the “Normalization to wt ASGR1 Binding” value in test [1] is 0.725. The “FACS Binding Geomean” value in test [2] worked out at 19800; in test [3], 31300. Further, the “Expression Normalization to mAb 65C12” value stood at 1.3 in test [4] and 1.79 in test [5].

B8: 173C11 (antibody, V domains shown)
VH: QVQLVESGGGVVQPGRSLRLSCAASGFTFSSYGIHWVRQAPGKGLEWVALIFYDGSNKYYADSVKGRFTISRDNSKNTLYLHMSSLRAEDTAVYYCARRYSSSWSGGMDVWGQGTTVTVSS
VL: DIVMTQTPLSLSVTPGQPASISCKSSQSLLHSEGKTYLYWYLQKPGQPPQLLIYEVSHRFSGVPDRFSGSGSGTDFTLKISRVEAEDVGVYYCMQSIQLLTFGGGTKVEIK
notes: mAb
Consider B8, for which the “Normalization to wt ASGR1 Binding” value in test [1] came out at 0.945. The “FACS Binding Geomean” value in test [2] was determined as 13900; in test [3], 28500. Also, the entries for the “Expression Normalization to mAb 65C12” value in test [4] and in test [5] were 1.86 and 1.97, respectively.

B9: 56E3 (antibody, V domains shown)
VH: QVQLVQSGAEVKKPGASVKVSCKASGYTFNSYGFSWVRQAPGQGLEWMGWISAYNGNTKEAQKFQGRVTMTTDTSTSTAYMELRSLRADDTAVYYCARHDFWSGYYKGMDVWGQGTTVTVSS
VL: not shown
notes: mAb
On to B9, for which, in test [1], the “Normalization to wt ASGR1 Binding” value came out at 0.762. Also, the “FACS Binding Geomean” value in test [2] was 20400; in test [3], 33900. The “Expression Normalization to mAb 65C12” value in test [4] amounted to 1.26; in test [5], 1.66.
